# T1: NtMOC1 Y180A (Nicotiana tabacum, UniProt A0A1S4BMC2 108-275, Y180A)
# T1 sequence: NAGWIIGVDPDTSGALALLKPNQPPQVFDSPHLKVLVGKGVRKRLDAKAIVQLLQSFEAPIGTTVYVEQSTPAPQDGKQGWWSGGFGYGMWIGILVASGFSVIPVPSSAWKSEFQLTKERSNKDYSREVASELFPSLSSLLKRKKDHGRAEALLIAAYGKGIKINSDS
# T2: NtMOC1 D116A (Nicotiana tabacum, UniProt A0A1S4BMC2 108-275, D116A)
# T2 sequence: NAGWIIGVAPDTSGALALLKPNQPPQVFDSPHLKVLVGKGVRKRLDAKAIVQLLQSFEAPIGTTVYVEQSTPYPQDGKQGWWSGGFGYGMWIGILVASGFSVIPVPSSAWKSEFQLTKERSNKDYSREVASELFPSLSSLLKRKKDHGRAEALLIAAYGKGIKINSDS
# T3: NtMOC1 E175A (Nicotiana tabacum, UniProt A0A1S4BMC2 108-275, E175A)
# T3 sequence: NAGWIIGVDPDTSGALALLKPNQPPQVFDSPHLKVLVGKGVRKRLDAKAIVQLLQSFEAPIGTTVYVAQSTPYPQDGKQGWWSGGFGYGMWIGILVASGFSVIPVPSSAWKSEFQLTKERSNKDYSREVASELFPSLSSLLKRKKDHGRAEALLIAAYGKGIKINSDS
# T4: NtMOC1 D118A (Nicotiana tabacum, UniProt A0A1S4BMC2 108-275, D118A)
# T4 sequence: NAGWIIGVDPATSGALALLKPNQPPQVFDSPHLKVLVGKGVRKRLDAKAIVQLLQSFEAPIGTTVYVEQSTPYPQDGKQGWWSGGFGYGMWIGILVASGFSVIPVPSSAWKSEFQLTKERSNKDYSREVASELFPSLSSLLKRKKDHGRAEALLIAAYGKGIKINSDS
# T5: NtMOC1 D253A (Nicotiana tabacum, UniProt A0A1S4BMC2 108-275, D253A)
# T5 sequence: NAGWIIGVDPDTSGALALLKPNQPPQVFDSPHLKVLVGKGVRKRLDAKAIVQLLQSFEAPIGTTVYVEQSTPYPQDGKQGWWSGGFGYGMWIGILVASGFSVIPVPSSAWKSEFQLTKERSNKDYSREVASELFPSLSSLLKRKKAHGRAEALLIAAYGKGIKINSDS
# T6: NtMOC1 E258A (Nicotiana tabacum, UniProt A0A1S4BMC2 108-275, E258A)
# T6 sequence: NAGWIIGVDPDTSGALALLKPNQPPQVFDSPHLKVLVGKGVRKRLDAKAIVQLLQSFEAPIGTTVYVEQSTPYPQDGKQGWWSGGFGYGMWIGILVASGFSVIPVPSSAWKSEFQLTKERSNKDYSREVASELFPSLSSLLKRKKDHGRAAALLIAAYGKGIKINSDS
# Columns and labels:
# [1] = target: NtMOC1 (N108-S275, I112V/Q162K/E235Q/E239Q) (Nicotiana tabacum); assay: crystal structure; HJ-free (apo) MOC1, 10 mg/ml with 1 mM MgCl2, sitting-drop vapor diffusion at 18 °C
# [2] = target: NtMOC1 (N108-S275, I112V/Q162K/E235Q/E239Q) (Nicotiana tabacum); assay: crystal structure; MOC1 with 1 mM MgCl2 mixed with Holliday junction DNA (9-bp arms) at a molar ratio of 1:1.2, co-crystallised
# NtMOC1 Y180A = target: T1, NtMOC1 Y180A; assay: EMSA; 5 mM EDTA; little effect; EMSA: 50 mM Tris-HCl pH 8.0, 1 mM DTT, 5 mM EDTA, 200 ng/ml heparin (so in the source), 10% glycerol, 25 C, 30 min; HJ 250 nM, protein 0-1000 nM; 6% native PAGE, no MgCl2; settings: protein: recombinant; tags: 6xHis N-term, removed (DrICE); chain copies: 2; label: none (GelRed stain); four-way junction of 4 strands, 28 nt each, 2-bp homologous core
# NtMOC1 D116A = target: T2, NtMOC1 D116A; assay: EMSA; 5 mM EDTA; EMSA: 50 mM Tris-HCl pH 8.0, 1 mM DTT, 5 mM EDTA, 200 ng/ml heparin (so in the source), 10% glycerol, 25 C, 30 min; HJ 250 nM, protein 0-1000 nM; 6% native PAGE, no MgCl2; settings: protein: recombinant; tags: 6xHis N-term, removed (DrICE); chain copies: 2; label: none (GelRed stain); four-way junction of 4 strands, 28 nt each, 2-bp homologous core
# NtMOC1 E175A = target: T3, NtMOC1 E175A; assay: as above; settings: protein: recombinant; tags: 6xHis N-term, removed (DrICE); chain copies: 2; label: none (GelRed stain); four-way junction of 4 strands, 28 nt each, 2-bp homologous core
# NtMOC1 D118A = target: T4, NtMOC1 D118A; assay: as above; settings: protein: recombinant; tags: 6xHis N-term, removed (DrICE); chain copies: 2; label: none (GelRed stain); four-way junction of 4 strands, 28 nt each, 2-bp homologous core
# NtMOC1 D253A = target: T5, NtMOC1 D253A; assay: as above; settings: protein: recombinant; tags: 6xHis N-term, removed (DrICE); chain copies: 2; label: none (GelRed stain); four-way junction of 4 strands, 28 nt each, 2-bp homologous core
# NtMOC1 E258A = target: T6, NtMOC1 E258A; assay: as above; settings: protein: recombinant; tags: 6xHis N-term, removed (DrICE); chain copies: 2; label: none (GelRed stain); four-way junction of 4 strands, 28 nt each, 2-bp homologous core
Molecule,stoichiometry N [1],stoichiometry N [2],binding result (NtMOC1 Y180A),binding result (NtMOC1 D116A),binding result (NtMOC1 E175A),binding result (NtMOC1 D118A),binding result (NtMOC1 D253A),binding result (NtMOC1 E258A)
"NtMOC1 (N108-S275, I112V/Q162K/E235Q/E239Q) (domain or fragment)",2,2,–,–,–,–,–,–
X2 (CCGG) HJ (structured_DNA) DNA 1: GGGCAAAGATGTCCCTCTGTTGTAATCG DNA 2: CCAGTGCCTTGCTGGGACATCTTTGCCC DNA 3: TAGACAGCTCCATCCAGCAAGGCACTGG DNA 4: CGATTACAACAGAGGATGGAGCTGTCTA,–,–,binds,binds,binds,binds,binds,binds
